Source: patent US20140105889A1 (published 2014)
Substitutions are numbered along the chain they refer to. Names may count otherwise.

Tests used:
human FcγRIIIa(F) = biological target: T1, human FcγRIIIa(F) (human, UniProt P08637 17-208, limits assumed); experiment: SPR (Biacore), captured antibody, FcγR analyte; bound/captured amount vs control x100
T1 construct: also called FcgRIIIaF; FcγRIIIa allotype F158
Description: Interaction between each modified antibody and Fcγ receptor prepared in the manner described above was analyzed using the Biacore T100 (GE Healthcare), Biacore T200 (GE Healthcare), Biacore A100 or Biacore 4000. HBS-EP+ (GE Healthcare) was used for the running buffer, and measurements were carried out at 25° C. The chips used were chips in which antigen peptides, Protein A (Thermo Scientific), Protein A/G (Thermo Scientific) or Protein L (ACTIGEN or BioVision) were immobilized on the Series S Sensor Chip CM5 (GE Healthcare) or Series S Sensor Chip CM4 (GE Healthcare) by amine coupling, or chips in which preliminarily biotinylated antigen peptides were allowed to interact and then immobilized on the Series S Sensor Chip SA (certified) (GE Healthcare). The target antibodies were captured on these sensor chips, Fcγ receptor diluted with the running buffer was allowed to interact, followed by measurement of the amount of bound antibody. The amounts bound were compared between antibodies. However, since the amount of Fcγ receptor bound depends on the amount of captured antibody, the values used for comparison were first corrected by dividing the amount of Fcγ receptor bound by the captured amount of each antibody. Through reaction with 10 mM glycine-HCl at pH 1.5, the sensor chips were regenerated by washing off antibody captured on the sensor chips and used repeatedly.

FcγRIIb [1] = biological target: T2, FcγRIIb (human, UniProt P31994 43-217, limits assumed); experiment: ratio of SPR KD values of this variant (FcγRIIaH over FcγRIIb)
T2 construct: also called FcγIIB; FcgRIIb
T2 sequence: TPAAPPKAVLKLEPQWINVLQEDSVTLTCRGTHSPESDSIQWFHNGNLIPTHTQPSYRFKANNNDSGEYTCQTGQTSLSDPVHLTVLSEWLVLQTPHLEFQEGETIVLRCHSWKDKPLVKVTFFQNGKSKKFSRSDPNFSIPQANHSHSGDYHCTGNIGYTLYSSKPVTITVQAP
Excerpt: (§1) Furthermore, KD(IIaR)/KD(IIb) and KD(IIaH)/KD(IIb) in the table respectively represent the value obtained by dividing the KD value of each variant for FcγRIIaR by the KD value of each variant for FcγRIIb, and the value obtained by dividing the KD value of each variant for FcγRIIaH by the KD value of each variant for FcγRIIb.

FcγRIIa type H [2] = biological target: T3, FcγRIIa type H (human, UniProt P12318 36-217); experiment: SPR (Biacore), captured antibody, FcγR as analyte, method of Example 14
T3 construct: also called FcγRIIaH; FcγRIIa(H)
T3 sequence: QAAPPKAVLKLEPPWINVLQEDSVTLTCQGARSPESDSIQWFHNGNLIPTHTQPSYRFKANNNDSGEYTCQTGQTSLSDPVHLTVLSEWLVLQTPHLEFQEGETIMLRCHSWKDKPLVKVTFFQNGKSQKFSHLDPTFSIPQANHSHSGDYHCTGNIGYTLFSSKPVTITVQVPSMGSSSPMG

FcγRIIIa type V = biological target: T4, FcγRIIIa type V (human, UniProt P08637 17-208, limits assumed); experiment: as above
T4 construct: also called FcγRIIIaV; FcγRIIIa(V)
T4 sequence (P08637 other isoform, or with tags, fused parts or gaps limits assumed): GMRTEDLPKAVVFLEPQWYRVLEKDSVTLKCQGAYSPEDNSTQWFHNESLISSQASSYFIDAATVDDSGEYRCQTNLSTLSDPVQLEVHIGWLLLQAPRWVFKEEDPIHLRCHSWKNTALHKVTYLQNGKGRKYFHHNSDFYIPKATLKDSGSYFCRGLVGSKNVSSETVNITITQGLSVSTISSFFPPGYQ

FcγRIIb [3] = biological target: T2, FcγRIIb; experiment: as above
FcγRIIb [4] = biological target: T2, FcγRIIb; experiment: ratio of SPR KD values of this variant (FcγRIIaR over FcγRIIb)
Excerpt: as §1

FcγRIa [5] = biological target: T5, FcγRIa (human, UniProt P12314 16-292, limits assumed); experiment: SPR (Biacore), captured antibody, FcγR as analyte, method of Example 14
T5 construct: also called CD64; FcgRIa
T5 sequence (P12314 16-292 limits assumed): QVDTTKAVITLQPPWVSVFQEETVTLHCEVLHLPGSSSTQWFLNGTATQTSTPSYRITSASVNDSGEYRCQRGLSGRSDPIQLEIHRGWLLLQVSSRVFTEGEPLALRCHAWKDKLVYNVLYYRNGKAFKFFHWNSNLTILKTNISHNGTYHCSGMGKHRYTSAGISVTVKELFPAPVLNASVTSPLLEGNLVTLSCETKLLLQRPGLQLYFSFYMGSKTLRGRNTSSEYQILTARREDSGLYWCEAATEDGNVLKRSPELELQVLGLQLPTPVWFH

FcγRIIb [6] = biological target: T6, FcγRIIb (human, UniProt P31994 43-217, limits assumed); experiment: SPR (Biacore); ratio against the parent IL6R-B3/IL6R-L
T6 construct: Soluble analyte in Biacore; also called FcgRIIb; FcγIIB
T6 sequence: T2 sequence
Description: Next, interaction between these antibodies and FcγR was analyzed kinetically using the Biacore T100 (GE Healthcare). The interaction was measured at a temperature of 25° C. using HBS-EP+ (GE Healthcare) for the running buffer. The Series S Sensor Chip CM5 (GE Healthcare) was used after immobilizing Protein A by amine coupling. […] Antibody captured on the chip was washed by allowing 10 mM glycine-HCl (pH 1.5) to react following measurement. The chip regenerated in this manner was used repeatedly. The dissociation constant KD (mol/L) was calculated from the association rate constant ka (L/mol/s) and dissociation rate constant kd (1/s) as calculated by global-fitting the measurement results with a 1:1 Langmuir binding model using the Biacore

FcγRIIb [7] = biological target: T6, FcγRIIb; experiment: SPR (Biacore), antibody captured on chip, FcγR as analyte, method of Example 14
FcγRIa [8] = biological target: T7, FcγRIa (human, UniProt P12314 16-292, limits assumed); experiment: as above
T7 construct: Soluble analyte in Biacore; also called FcgRIa; CD64
T7 sequence (P12314 16-292 limits assumed): as above

FcγRIIa type H [9] = biological target: T8, FcγRIIa type H (human, UniProt P12318 36-217); experiment: as above
T8 construct: Soluble analyte in Biacore; also called FcγRIIaH; FcγRIIa(H)
T8 sequence: T3 sequence

FcγRIIa type R = biological target: T9, FcγRIIa type R (human, UniProt P12318 36-217); experiment: as above
T9 construct: Soluble analyte in Biacore; also called FcγRIIaR; FcγRIIa(R)
T9 chain: T3 sequence with H133R

human FcγRIa = biological target: T10, human FcγRIa (human, UniProt P12314 16-292, limits assumed); experiment: SPR (Biacore), antibody captured on the chip, FcγR as analyte
T10 construct: also called CD64
T10 sequence (P12314 16-292 limits assumed): as above

[10] = biological target: T11, human FcγRIIa type R (allotype R131) (human, UniProt P12318 36-217); experiment: as above
T11 construct: also called FcγRIIaR; FcγRIIa(R)
T11 chain: T3 sequence with H133R

[11] = biological target: T12, human FcγRIIa type H (allotype H131) (human, UniProt P12318 36-217); experiment: as above
T12 construct: also called FcγRIIaH; FcγRIIa(H)
T12 sequence: T3 sequence

human FcγRIIb [12] = biological target: T13, human FcγRIIb (human, UniProt P31994 43-217); experiment: as above
T13 construct: also called FcγIIB
T13 sequence: T2 sequence

human FcγRIIb [13] = biological target: T13, human FcγRIIb; experiment: SPR (Biacore); KD of parent IL6R-B3/IL6R-L for FcγRIIb divided by KD of the variant for FcγRIIb
Excerpt: as §1

mouse FcγRIV = biological target: T14, mouse FcγRIV (mouse); experiment: SPR (Biacore), antibody captured on Protein L, mouse FcγR as analyte, pH 7.4, 25 C
T14 construct: Bought soluble receptor; also called mFcgRIV; mFcgR IV
T14 sequence (A0A0B4J1G0 21-203): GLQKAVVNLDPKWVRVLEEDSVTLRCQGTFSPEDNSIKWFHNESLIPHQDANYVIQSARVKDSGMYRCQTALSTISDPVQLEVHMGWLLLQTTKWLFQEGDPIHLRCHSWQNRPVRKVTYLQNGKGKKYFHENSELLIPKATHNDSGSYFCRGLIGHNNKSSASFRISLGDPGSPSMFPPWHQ
Description: Binding activity between the antibodies and mouse FcγRI, FcγRII, FcγRIII and FcγRIV (R&D Systems, Sin θ Biological) (hereinafter referred to as mouse FcγRs) was evaluated using the Biacore T100 or T200 (GE Healthcare). The antibodies being tested were captured by Protein L (ACTIGEN) that was immobilized in suitable amounts on the CM4 Sensor Chip (GE Healthcare) by amine coupling. Next, the diluted mouse FcγRs and a running buffer used as a blank were injected to allow interaction with the antibody captured on the sensor chip. A buffer consisting of 20 mmol/L ACES, 150 mmol/L NaCl and 0.05% (w/v) Tween 20 (pH 7.4) was used for the running buffer, and this buffer was also used to dilute the mouse FcγRs. 10 mmol/L glycine-HCl (pH 1.5) was used to regenerate the sensor chip. All measurements were carried out at 25° C.

mouse FcRn = biological target: T15, mouse FcRn (mouse, UniProt Q61559 22-297, limits assumed); experiment: SPR (Biacore), mouse FcRn, pH 7.0
T15 construct: Soluble analyte in Biacore; also called mFcRn
T15 sequence (looked up) 1: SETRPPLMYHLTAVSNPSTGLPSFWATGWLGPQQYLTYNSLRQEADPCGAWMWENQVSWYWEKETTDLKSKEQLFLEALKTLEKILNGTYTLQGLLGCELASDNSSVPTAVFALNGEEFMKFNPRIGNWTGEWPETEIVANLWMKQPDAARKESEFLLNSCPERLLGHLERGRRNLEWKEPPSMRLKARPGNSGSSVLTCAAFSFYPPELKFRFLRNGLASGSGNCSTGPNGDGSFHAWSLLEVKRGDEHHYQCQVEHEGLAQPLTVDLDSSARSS
T15 sequence (looked up) 2: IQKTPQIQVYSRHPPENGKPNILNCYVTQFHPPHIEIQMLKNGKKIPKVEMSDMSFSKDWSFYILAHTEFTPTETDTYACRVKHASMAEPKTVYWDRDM
Description: The binding between antibody and mouse FcRn was kinetically analyzed using Biacore T100 (GE Healthcare). An appropriate amount of protein L (ACTIGEN) was immobilized onto Sensor chip CM4 (GE Healthcare) by the amino coupling method, and the chip was allowed to capture an antibody of interest. Then, diluted FcRn solutions and running buffer (as a reference solution) were injected to allow mouse FcRn to interact with the antibody captured on the sensor chip. The running buffer used contains 50 mmol/l sodium phosphate, 150 mmol/l NaCl, and 0.05% (w/v) Tween20 (pH 7.4). FcRn was diluted using each buffer. The sensorchip was regenerated using 10 mmol/l glycine-HCl (pH 1.5). Assays were carried out exclusively at 25 degrees C. The association rate constant ka (1/Ms) and dissociation rate constant kd (1/s), both of which are kinetic parameters, were calculated based on the sensorgrams obtained in the assays, and the KD (M) of each antibody for mouse FcRn was determined from these values. Each parameter was calculated using Biacore T100 Evaluation Software (GE Healthcare).

T1 sequence (P08637 other isoform, or with tags, fused parts or gaps limits assumed): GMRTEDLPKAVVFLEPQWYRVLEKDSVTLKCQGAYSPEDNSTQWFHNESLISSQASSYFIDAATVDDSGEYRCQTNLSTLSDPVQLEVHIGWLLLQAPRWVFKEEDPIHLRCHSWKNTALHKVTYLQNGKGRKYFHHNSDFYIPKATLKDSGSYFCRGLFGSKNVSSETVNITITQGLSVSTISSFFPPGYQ

B1: GpH7-B3 D265S/GpL16-k0 (antibody, human IgG1)
heavy: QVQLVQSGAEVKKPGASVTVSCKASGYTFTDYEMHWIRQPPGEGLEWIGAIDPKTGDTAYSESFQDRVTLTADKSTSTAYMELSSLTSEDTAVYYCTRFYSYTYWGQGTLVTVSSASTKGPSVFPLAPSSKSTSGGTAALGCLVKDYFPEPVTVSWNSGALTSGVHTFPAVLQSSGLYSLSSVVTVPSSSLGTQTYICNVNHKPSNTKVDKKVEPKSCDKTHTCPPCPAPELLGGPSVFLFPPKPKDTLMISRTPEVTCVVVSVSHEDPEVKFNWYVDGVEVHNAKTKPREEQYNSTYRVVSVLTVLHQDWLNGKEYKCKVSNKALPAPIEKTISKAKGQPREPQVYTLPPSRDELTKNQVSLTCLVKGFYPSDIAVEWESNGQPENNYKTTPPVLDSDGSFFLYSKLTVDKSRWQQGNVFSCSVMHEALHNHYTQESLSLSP
light: DIVMTQSPLSLPVTPGEPASISCQASESLVHSNRNTYLHWYLQKPGQSPQLLIYKVSNRFSGVPDRFSGSGSGTDFTLKISRVEAEDVGVYYCSQNTHVPPTFGQGTKVEIE
notes: B3 variant of anti-glypican-3 IgG1; substitution in EU numbering; also called B3 variant
In the case of B1, the relative binding activity (human FcγRIIIa(F)) is reported as 2 % of GpH7-B3/GpL16-k0.

B2: IL6R-BP179/IL6R-L (antibody, human IgG1)
heavy: QVQLQESGPGLVKPSETLSLTCAVSGHSISHDHAWSWVRQPPGEGLEWIGFISYSGITNYNPSLQGRVTISRDNSKNTLYLQMNSLRAEDTAVYYCARSLARTTAMDYWGEGTLVTVSSASTKGPSVFPLAPSSKSTSGGTAALGCLVKDYFPEPVTVSWNSGALTSGVHTFPAVLQSSGLYSLSSVVTVPSSSLGTQTYICNVNHKPSNTKVDKKVEPKSCDKTHTCPPCPAPELLGDDSVFLFPPKPKDTLMISRTPEVTCVVVDVSHEDGEVKFNWYVDGVEVHNAKTKPREEQYNSTYRVVSVLTVLHQDWLNGKEYKCKVSNAALPKPIEKTISKAKGQPREPQVYTLPPSRDELTKNQVSLTCLVKGFYPSDIAVEWESNGQPENNYKTTPPVLDSDGSFFLYSKLTVDKSRWQQGNVFSCSVMHEALHNHYTQESLSLSP
light: DIQMTQSPSSLSASVGDRVTITCRASQDISSYLNWYQQKPGKAPKLLIYYTSRLHSGVPSRFSGSGSGTDFTFTISSLQPEDIATYYCQQGNTLPYTFGQGTKVEIK
notes: EU numbering
In the case of B2, the “KD (IIaH)/KD (IIb)” value (FcγRIIb [1]) is reported as 191, the Kd (FcγRIIa type H [2]) is reported as 1600 nM and the Kd (FcγRIIIa type V) is reported as 55000 nM. The Kd (FcγRIIb [3]) was 64 nM and the “KD (IIaR)/KD (IIb)” value (FcγRIIb [4]) was 16.7.

B3: IL6R-BP180/IL6R-L (antibody, human IgG1)
heavy: B2 heavy with A328K
light: B2 light
notes: EU numbering
B3 was tested, and the “KD (IIaH)/KD (IIb)” value (FcγRIIb [1]) was 290, the Kd (FcγRIIa type H [2]) was 1600 nM and the Kd (FcγRIa [5]) was 96 nM. For the same binder, the “KD (IIaR)/KD (IIb)” value (FcγRIIb [4]) was 18.6.

B4: IL6R-BP214/IL6R-L (antibody, human IgG1)
heavy: B2 heavy with E235D, L236Y, G273P, Y298D, A328D
light: B2 light
notes: Anti-human IL-6 receptor IgG1 Fc variant
With B4 the “KD(IIb) of the parent polypeptide/KD(IIb) of the altered polypeptide” value (FcγRIIb [6]) was 26.2 fold, the Kd (FcγRIIb [7]) was 120 nM and the Kd (FcγRIa [8]) was 59 nM. For the same binder, the Kd (FcγRIIa type H [9]) was 9200 nM and the Kd (FcγRIIa type R) was 1700 nM.

B5: IL6R-BP200/IL6R-L (antibody, human IgG1)
heavy: B2 heavy with E235D, L236Y, A328D, K332R
light: B2 light
notes: Anti-human IL-6 receptor human IgG1 variant; uncertain; copies: 2 + 2
B5 showed a Kd (human FcγRIa) of 33 nM, a Kd [10] of 630 nM and a Kd [11] of 4200 nM. The Kd (human FcγRIIb [12]) was 34 nM and the “KD(IIb) of the parent polypeptide/KD(IIb) of the altered polypeptide” value (human FcγRIIb [13]) was 91.2.

B6: antibody with mPM1H-mIgG1 heavy chain and L(WT)-CK light chain (antibody)
heavy: DVQLQESGPVLVKPSQSLSLTCTVTGYSITSDHAWSWIRQFPGNKLEWMGYISYSGITTYNPSLKSRISITRDTSKNQFFLQLNSVTTGDTSTYYCARSLARTTAMDYWGQGTSVTVSSAKTTPPSVYPLAPGSAAQTNSMVTLGCLVKGYFPEPVTVTWNSGSLSSGVHTFPAVLQSDLYTLSSSVTVPSSTWPSETVTCNVAHPASSTKVDKKIVPRDCGCKPCICTVPEVSSVFIFPPKPKDVLTITLTPKVTCVVVDISKDDPEVQFSWFVDDVEVHTAQTQPREEQFNSTFRSVSELPIMHQDWLNGKEFKCRVNSAAFPAPIEKTISKTKGRPKAPQVYTIPPPKEQMAKDKVSLTCMITDFFPEDITVEWQWNGQPAENYKNTQPIMDTDGSYFVYSKLNVQKSNWEAGNTFTCSVLHEGLHNHHTEKSLSHSPGK
light: not shown
notes: Natural mouse IgG1 constant region; In the Biacore assays the heavy chain was paired with L(WT)-CK; also called mPM1-mIgG1; copies: 2 + 2
For B6, the “BINDING AMOUNT (RU)” value (mouse FcγRIV) was -3.5 RU and the binding result (mouse FcRn) was “no binding”.
